# Data published in the supplement of paper PMC10724198.
# ± gives the standard deviation of the averaged measurements.
# Test system: Saccharomyces cerevisiae
# Test: protein stability index of tFT-peptide fusion (C-terminal peptide) (PSI (0-1 scale)); higher = more stable (slower turnover)
# Conditions: genetic background: wild type; temperature: 30 C
# 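Also: PSI is a weighted mean of sequencing reads over stability bins, variants kept only with over 10 reads, mCherry proximal and sfGFP distal, peptide attached via GGGS linker.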
row,Sequence,protein stability index
1,LLFPFSLHLSPP,0.765 ± 0.066
2,LLFSPTHEPRIW,0.734 ± 0.075
3,LLFSPTRVFLRY,0.49 ± 0.053
4,LLFSSPPARMCP,0.786 ± 0.1
5,LLGHSTPAHVFL,0.7129 ± 0.0031
6,LLGKVAYFFMFG,0.631 ± 0.025
7,LLGVRLGVLSFA,0.58 ± 0.01
8,LLHEAFSSPLSS,0.7164 ± 0.0068
9,LLHHSSVSFFSL,0.71 ± 0.016
10,LLHWGRWRRGRR,0.722 ± 0.046
11,LLIYIPLFEWAR,0.526 ± 0.028
12,LLKQDNSVLSEL,0.63 ± 0.07
13,LLLARWASFIMS,0.685 ± 0.01
14,LLLASSHAPYLH,0.77 ± 0.021
15,LLLLDLWLPSVL,0.76 ± 0.059
16,LLLLNSFFISPP,0.742 ± 0.027
17,LLLPSTPSPLLY,0.609 ± 0.014
18,LLPFCPPCLRSL,0.648 ± 0.018
19,LLPFDTYPPTSP,0.695 ± 0.036
20,LLPLAPSPPPPH,0.71 ± 0.042
21,LLPPPPFSAPPS,0.671 ± 0.012
22,LLPPSHRASPRQ,0.694 ± 0.027
23,LLPQSPRPLVHS,0.774 ± 0.065

row,Sequence,protein stability index
1,LLPSLLRPQPPA,0.699 ± 0.034
2,LLPSPLSLTFPL,0.616 ± 0.013
3,LLPVFFISYPSS,0.6545 ± 0.0053
4,LLQLLGGFVFSA,0.67 ± 0.018
5,LLRLVFHLETSS,0.547 ± 0.081
6,LLRVLVTFDAFD,0.576 ± 0.021
7,LLRWCFDLWWVL,0.532 ± 0.051
8,LLSFLLFFVPGS,0.576 ± 0.0013
9,LLSPPPHPPPLI,0.6648 ± 0.0038
10,LLSPQPPSSPLP,0.69 ± 0.015
11,LLSSPYPPDTFT,0.6427 ± 0.0012
12,LLTGPYRCIPLV,0.608 ± 0.039
13,LLTSRLSTPFLI,0.53 ± 0.012
14,LLVGVGGAGGVG,0.603 ± 0.012
15,LLVLPLVFSCSS,0.53 ± 0.0078
16,LLVWPLDQTFRL,0.698 ± 0.019
17,LLWVSAPHRYVR,0.642 ± 0.036
18,LLYALLLSLFRY,0.595 ± 0.02
19,LMSGFFCGLLYA,0.6181 ± 0.0029
20,LMYGSVGVRGGE,0.76 ± 0.064
21,LNCRCMLSRHCW,0.666 ± 0.032
22,LNSCLIVDEPDI,0.8026 ± 0.0048
23,LNTVNGRSSTAK,0.665 ± 0.019

row,Sequence,protein stability index
1,LPACPHPPPLPD,0.6594 ± 0.0047
2,LPAHLLPPSSPS,0.741 ± 0.03
3,LPAHPPAAPGAP,0.692 ± 0.032
4,LPAPPPPPPSPL,0.71 ± 0.074
5,LPAPSPAVPSPP,0.668 ± 0.033
6,LPAPSPSPHPPA,0.689 ± 0.026
7,LPCGRGQLVGSQ,0.677 ± 0.032
8,LPCTTPLLFTPV,0.706 ± 0.21
9,LPDLSPIRRCPL,0.694 ± 0.04
10,LPERASQARGRP,0.694 ± 0.17
11,LPFRLARLSQEG,0.849 ± 0.016
12,LPGGRRPSQCPA,0.645 ± 0.01
13,LPILPQHQPTTD,0.674 ± 0.014
14,LPKARPRTNPPP,0.712 ± 0.15
15,LPKSRIGPILNG,0.743 ± 0.12
16,LPLALSAPPAQP,0.683 ± 0.042
17,LPLAMTTIGISL,0.675 ± 0.011
18,LPLCSPPAPPSS,0.666 ± 0.026
19,LPLIRQLPNPPP,0.648 ± 0.031
20,LPLLALPLALHP,0.653 ± 0.0077
21,LPLMVPIPLLLP,0.648 ± 0.024
22,LPLPIPPFPCPP,0.686 ± 0.017
23,LPLPSTYHHISK,0.68 ± 0.063

row,Sequence,protein stability index
1,LPLWQHPTKPVH,0.64238 ± 8.1e-05
2,LPLYYPPGTREL,0.708 ± 0.027
3,LPPAIPSTPPTP,0.756 ± 0.0087
4,LPPASHLPYLVL,0.717 ± 0.019
5,LPPLAPPPPPLP,0.688 ± 0.026
6,LPPLCLPPPAHP,0.733 ± 0.026
7,LPPLPPPPPLPL,0.688 ± 0.11
8,LPPLSLSPPLPP,0.689 ± 0.049
9,LPPLTSPSIVRG,0.749 ± 0.04
10,LPPPFPSPPRPP,0.617 ± 0.14
11,LPPPLPPRPSPP,0.728 ± 0.089
12,LPPPPAPSSAPL,0.735 ± 0.14
13,LPPPPLPPPVFP,0.74 ± 0.018
14,LPPPPPHRTGDC,0.5859 ± 0.0028
15,LPPPPPLPSSPL,0.685 ± 0.018
16,LPPPPRPPPPPP,0.663 ± 0.021
17,LPPPPSASPPRP,0.794 ± 0.06
18,LPPPPTAPPPSR,0.719 ± 0.058
19,LPPPRPASPGSP,0.642 ± 0.051
20,LPPPRPGLPFTF,0.704 ± 0.057
21,LPPPRSPPPLSA,0.622 ± 0.057
22,LPPPSLPGPSAS,0.786 ± 0.059
23,LPPPYPRPPPFR,0.68 ± 0.005

row,Sequence,protein stability index
1,LPPRPLPPPSRT,0.7 ± 0.076
2,LPPRPPTHSPPP,0.722 ± 0.011
3,LPPRTHSPLSSP,0.636 ± 0.11
4,LPPSPLMTRTCA,0.6343 ± 0.0041
5,LPPSSLTLSPSS,0.675 ± 0.045
6,LPPSSSPCPLPS,0.7304 ± 0.0053
7,LPRLPPPPHPCP,0.741 ± 0.013
8,LPRLTPARPRHH,0.7 ± 0.1
9,LPRPPAPPMRYM,0.70928 ± 9.3e-05
10,LPRSPPCCHVND,0.628 ± 0.02
11,LPRVSMTPTRVG,0.6535 ± 0.0029
12,LPSHRSPITSFL,0.668 ± 0.14
13,LPSLHPPPSPQP,0.777 ± 0.08
14,LPSPHPPPPPLS,0.673 ± 0.13
15,LPSSFLPVPAPP,0.6976 ± 0.00082
16,LPTLPPPTPYAL,0.652 ± 0.044
17,LPTPVRRPPSPP,0.71 ± 0.028
18,LPTSPMSCHTLT,0.76 ± 0.088
19,LPVSISIGNVGR,0.627 ± 0.025
20,LPWLTASRLVMR,0.714 ± 0.043
21,LQATFRRHLNLV,0.655 ± 0.032
22,LQFGHGDFRSTV,0.713 ± 0.093
23,LQRAPKLLPSSS,0.683 ± 0.03

row,Sequence,protein stability index
1,LQRHSSQQTTSA,0.658 ± 0.025
2,LQVTLALSAALP,0.802 ± 0.079
3,LRAVRDSLMSQC,0.681 ± 0.033
4,LRCNAQSMICLT,0.633 ± 0.081
5,LRCPLMYDIFYN,0.726 ± 0.074
6,LRCRLFIWDGVK,0.809 ± 0.038
7,LRDYLLWRECTL,0.692 ± 0.033
8,LRFLLLRFILRS,0.472 ± 0.048
9,LRGCGSGAGWFL,0.667 ± 0.028
10,LRGILGTLINGV,0.609 ± 0.097
11,LRGLRALRGDLT,0.654 ± 0.05
12,LRGVAIAARYPR,0.766 ± 0.02
13,LRIQKIVSGALM,0.707 ± 0.01
14,LRLLCVSGSSVR,0.638 ± 0.065
15,LRLSCGDRFRVG,0.557 ± 0.019
16,LRLTTNTGCTIS,0.611 ± 0.023
17,LRPKESQEYIHR,0.652 ± 0.079
18,LRPLQPCGLIQC,0.52 ± 0.022
19,LRQKKIELPIEP,0.687 ± 0.02
20,LRRPAFCAFTST,0.715 ± 0.024
21,LRRSPPNPLLKA,0.634 ± 0.021
22,LRRSRGTVWRWY,0.5535 ± 0.0032
23,LRSIAVLPPSPF,0.695 ± 0.039

row,Sequence,protein stability index
1,LRSPPSLLPLSL,0.7056 ± 0.0033
2,LRSQDFKGHLRT,0.6606 ± 0.0029
3,LRSRTPPSPHFP,0.626 ± 0.0069
4,LRTLVARWIVGQ,0.515 ± 0.021
5,LRVFKVCSGISG,0.642 ± 0.045
6,LRVGMSSASVFQ,0.733 ± 0.03
7,LRVNGIVTVSGF,0.749 ± 0.13
8,LSAVHYNRAVFA,0.5141 ± 0.0049
9,LSAVRFGRVWGG,0.6959 ± 0.0043
10,LSCWLGCVALGW,0.718 ± 0.13
11,LSEVFLSMNVVL,0.676 ± 0.06
12,LSFLYCSDNKVA,0.6562 ± 0.006
13,LSGLQGPGVSCC,0.642 ± 0.021
14,LSHLILPPSSPS,0.677 ± 0.013
15,LSIFFCRCFSSF,0.59 ± 0.021
16,LSIGGDLLFLRE,0.716 ± 0.067
17,LSKASNTLVDSD,0.755 ± 0.058
18,LSLFMAAREVFP,0.664 ± 0.018
19,LSLGSSATLTFQ,0.698 ± 0.03
20,LSLLPPLCFPSH,0.8215 ± 0.0043
21,LSLTCLSSPPPA,0.654 ± 0.034
22,LSLVDFSTLWFF,0.611 ± 0.08
